Data published in patent US20190336544A1.

Legend:
[1] = target: T1, mouseCD47, coated on ELISA plates (mouse) (UniProt Q61735); experiment: ELISA; mCD47 coated, culture supernatant
T1 sequence (looked up): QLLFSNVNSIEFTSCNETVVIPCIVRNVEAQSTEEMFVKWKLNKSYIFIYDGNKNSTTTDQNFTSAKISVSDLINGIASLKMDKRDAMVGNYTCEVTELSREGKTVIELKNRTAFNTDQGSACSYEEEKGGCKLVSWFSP

[2] = target: IgG (coating control in the ELISA binding assays); experiment: ELISA; IgG coated, culture supernatant

B1: secreted anti-mCD47 scFv (αmCD47scFv-V5-HIS, SYN3161) (scFv, from a related filing)
scFv: QVKLLQSGAALVKPGASVKMSCQASGYSFTDYWVTWVKQSHGQSLEWIGEIYPSNTVTNFNDNFKGKATLTVDKSTSTAYMELSRLTSEDSAIYYCTRIGNSGYRVGWFIYWGQGTLVTVLSGGGGSGGGGSGGGGSDTVLTQSPALAVSPGERVTISCKASESVSSHMHWYQQKPGQQPKLLIYKASNLASGVPARFSGSGSGTDFTLTIDPVEADDTATYFCQQGWNGPFTFGAGTRLELKRADAAGSGELGGSGKPIPNPLLGLDSTGSGHHHHHH
ELISA signal (quantity not given) [1]: 0.527 | ELISA signal (quantity not given) [2]: 0.067
